The values below come from patent publication US20110207796A1, “ALPHA-SYNUCLEIN KINASE” (Elan Pharma International Limited, priority 2008, published 2011).

Assay [1] addresses human alpha-synuclein (wild-type, recombinant) (human). As to the kind of experiment: cell-based or functional assay.
In assay [2] the target is Polo like kinase 2 (PLK2) (human). As to the kind of experiment: cell-based or functional assay.

B1: Protein kinase, cGMP-dependent, regulatory, Type I (enzyme, human, UniProt Q13976-2 1-686, looked up)
chain: MGTLRDLQYALQEKIEELRQRDALIDELELELDQKDELIQKLQNELDKYRSVIRPATQQAQKQSASTLQGEPRTKRQAISAEPTAFDIQDLSHVTLPFYPKSPQSKDLIKEAILDNDFMKNLELSQIQEIVDCMYPVEYGKDSCIIKEGDVGSLVYVMEDGKVEVTKEGVKLCTMGPGKVFGELAILYNCTRTATVKTLVNVKLWAIDRQCFQTIMMRTGLIKHTEYMEFLKSVPTFQSLPEEILSKLADVLEETHYENGEYIIRQGARGDTFFIISKGTVNVTREDSPSEDPVFLRTLGKGDWFGEKALQGEDVRTANVIAAEAVTCLVIDRDSFKHLIGGLDDVSNKAYEDAEAKAKYEAEAAFFANLKLSDFNIIDTLGVGGFGRVELVQLKSEESKTFAMKILKKRHIVDTRQQEHIRSEKQIMQGAHSDFIVRLYRTFKDSKYLYMLMEACLGGELWTILRDRGSFEDSTTRFYTACVVEAFAYLHSKGIIYRDLKPENLILDHRGYAKLVDFGFAKKIGFGKKTWTFCGTPEYVAPEIILNKGHDISADYWSLGILMYELLTGSPPFSGPDPMKTYNIILRGIDMIEFPKKIAKNAANLIKKLCRDNPSERLGNLKNGVKDIQKHKWFEGFNWEGLRKGTLTPPIIPSVASPTDTSNFDSFPEDNDEPPPDDNSGWDIDF
Turning to B1, in assay [1], the percentage of phospho-synuclein by ELISA, cDNA transfected into PEAK-Syn cells came to 8.9%.

B2: synphilin (protein, UniProt Q9Y6H5 1-919, looked up)
chain: MEAPEYLDLDEIDFSDDISYSVTSLKTIPELCRRCDTQNEDRSVSSSSWNCGISTLITNTQKPTGIADVYSKFRPVKRVSPLKHQPETLENNESDDQKNQKVVEYQKGGESDLGPQPQELGPGDGVGGPPGKSSEPSTSLGELEHYDLDMDEILDVPYIKSSQQLASFTKVTSEKRILGLCTTINGLSGKACSTGSSESSSSNMAPFCVLSPVKSPHLRKASAVIHDQHKLSTEETEISPPLVKCGSAYEPENQSKDFLNKTFSDPHGRKVEKTTPDCQLRAFHLQSSAAESKPEEQVSGLNRTSSQGPEERSEYLKKVKSILNIVKEGQISLLPHLAADNLDKIHDENGNNLLHIAASQGHAECLQHLTSLMGEDCLNERNTEKLTPAGLAIKNGQLECVRWMVSETEAIAELSCSKDFPSLIHYAGCYGQEKILLWLLQFMQEQGISLDEVDQDGNSAVHVASQHGYLGCIQTLVEYGANVTMQNHAGEKPSQSAERQGHTLCSRYLVVVETCMSLASQVVKLTKQLKEQTVERVTLQNQLQQFLEAQKSEGKSLPSSPSSPSSPASRKSQWKSPDADDDSVAKSKPGVQEGIQVLGSLSASSRARPKAKDEDSDKILRQLLGKEISENVCTQEKLSLEFQDAQASSRNSKKIPLEKRELKLARLRQLMQRSLSESDTDSNNSEDPKTTPVRKADRPRPQPIVESVESMDSAESLHLMIKKHTLASGGRRFPFSIKASKSLDGHSPSPTSESSEPDLESQYPGSGSIPPNQPSGDPQQPSPDSTAAQKVATSPKSALKSPSSKRRTSQNLKLRVTFEEPVVQMEQPSLELNGEKDKDKGRTLQRTSTSNESGDQLKRPFGAFRSIMETLSGNQNNNNNYQAANQLKTSTLPLTSLGRKTDAKGNPASSASKGKNKAA
B2 came in with a percent phospho-synuclein by ELISA, PLK2, synuclein and synphilin co-transfected into HEK cells in assay [2] of 83.3%.
